Read-outs that look alike come from different tables or passages of the source.

The target of test [1] is biotinylated hBLyS-ECD (human) (UniProt Q9Y275). The test is described as follows: blocking ELISA: biotinylated hBLyS-ECD on coated BAFF R, antibody 0.8 nM. A general note: ELISA stands for enzyme-linked immunosorbent assay.
Target sequence in this assay (Q9Y275 134-285): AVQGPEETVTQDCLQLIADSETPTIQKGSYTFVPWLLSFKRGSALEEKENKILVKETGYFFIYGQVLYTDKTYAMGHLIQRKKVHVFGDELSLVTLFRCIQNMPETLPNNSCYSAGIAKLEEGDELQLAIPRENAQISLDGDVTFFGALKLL
Test [2] shares this target. The test is described as follows: blocking ELISA: biotinylated hBLyS-ECD on coated BAFF R, antibody 0.032 nM.
Target sequence in this assay (Q9Y275 134-285): as above
For test [3] the target is unchanged. The test is described as follows: blocking ELISA: biotinylated hBLyS-ECD on coated BAFF R, antibody 0.16 nM.
Target sequence in this assay (Q9Y275 134-285): as above
Test [4] shares this target. The test can be described thus: ELISA, biotinylated hBLyS-ECD captured on streptavidin; antibody 0.107 nM.
Target sequence in this assay (Q9Y275 134-285): as above
For test [5] the target is unchanged. The test can be described thus: ELISA on captured biotinylated hBLyS-ECD; control antibody 66.7 nM.
Target sequence in this assay (Q9Y275 134-285): as above
Test [6] addresses human BLyS (full length, arginine to histidine at position 132) on CHO-K1 cells (human) (UniProt Q9Y275). The test is described as follows: flow cytometry, CHO-K1 hBLyS cells, antibody 0 nM.
The target of test [7] is biotinylated hBLyS-ECD (human) (UniProt Q9Y275). The test can be described thus: ELISA, biotinylated hBLyS-ECD captured on streptavidin; antibody 66.7 nM.
Target sequence in this assay (Q9Y275 134-285): as above
Test [8] has the same target. The test can be described thus: ELISA, biotinylated hBLyS-ECD captured on streptavidin; antibody 2.67 nM.
For test [9] the target is unchanged. The test is described as follows: ELISA, biotinylated hBLyS-ECD captured on streptavidin; antibody 0.00427 nM.
Test [10] deals with human BLyS (full length, arginine to histidine at position 132) on CHO-K1 cells (human) (UniProt Q9Y275). The test is described as follows: flow cytometry, CHO-K1 hBLyS cells, antibody 2.67 nM. Background: A flow cytometer gives signals particle by particle.
human BLyS (full length, arginine to histidine at position 132) on CHO-K1 cells (human), sequence (Q9Y275 whole entry R130H, the tested form may be a part): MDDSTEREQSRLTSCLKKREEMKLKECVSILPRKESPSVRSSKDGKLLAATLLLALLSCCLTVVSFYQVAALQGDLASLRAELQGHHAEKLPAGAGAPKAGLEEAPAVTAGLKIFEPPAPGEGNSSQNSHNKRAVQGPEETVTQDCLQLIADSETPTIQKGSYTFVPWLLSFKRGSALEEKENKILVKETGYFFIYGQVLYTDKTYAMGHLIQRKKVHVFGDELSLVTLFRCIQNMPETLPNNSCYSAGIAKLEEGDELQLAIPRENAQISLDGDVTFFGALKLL
Test [11] addresses cynomolgus BLyS (full length, arginine to histidine at position 132) on CHO-K1 cells (cynomolgus). The test can be described thus: flow cytometry, CHO-K1 cynoBLyS cells, antibody 13.3 nM.
Test [12] addresses human BLyS (full length, arginine to histidine at position 132) on CHO-K1 cells (human) (UniProt Q9Y275). The test is described as follows: flow cytometry, CHO-K1 hBLyS cells, antibody 0.0213 nM.
In test [13] the target is cynomolgus BLyS (full length, arginine to histidine at position 132) on CHO-K1 cells (cynomolgus). The test is described as follows: flow cytometry, CHO-K1 cynoBLyS cells, antibody 0.107 nM.
Target sequence in this assay (Q9Y275 other isoform, or with tags, fused parts or gaps limits assumed): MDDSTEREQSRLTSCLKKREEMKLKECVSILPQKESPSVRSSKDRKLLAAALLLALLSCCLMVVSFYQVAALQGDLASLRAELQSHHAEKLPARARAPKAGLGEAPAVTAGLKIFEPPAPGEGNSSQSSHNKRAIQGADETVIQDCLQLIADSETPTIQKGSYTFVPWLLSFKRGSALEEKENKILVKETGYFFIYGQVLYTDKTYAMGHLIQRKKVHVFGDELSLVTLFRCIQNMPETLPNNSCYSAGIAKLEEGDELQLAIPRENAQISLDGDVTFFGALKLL
The target of test [14] is biotinylated hBLyS-ECD (human) (UniProt Q9Y275). The test is described as follows: ELISA, biotinylated hBLyS-ECD captured on streptavidin; antibody 13.3 nM.
Test [15] addresses cynomolgus BLyS (full length, arginine to histidine at position 132) on CHO-K1 cells (cynomolgus). The test can be described thus: flow cytometry, CHO-K1 cynoBLyS cells, antibody 66.7 nM.
Target sequence in this assay (Q9Y275 other isoform, or with tags, fused parts or gaps limits assumed): as above
Test [16] has as its target T1, biotinylated hBLyS-ECD (human, UniProt Q9Y275 134-285, biotinylated with Biotin-X-X-NHS (molar ratio 7:1); sites not stated).
T1 construct: also called biotinylated immunogen; biotinylated hBLvS-ECD
The test can be described thus: ELISA on captured biotinylated hBLyS-ECD; antibody 0.534 nM.

For test [17], the target named is T1, biotinylated hBLyS-ECD. The test can be described thus: ELISA on captured biotinylated hBLyS-ECD; antibody 2.67 nM.
Test [18] concerns the target T1, biotinylated hBLyS-ECD. The test is described as follows: ELISA on captured biotinylated hBLyS-ECD; antibody 0 nM (background).
The target of test [19] is T2, extracellular domain of human BLyS protein (hBLyS-ECD), His-tagged, Ala134-Leu285 (human, UniProt Q9Y275 134-285).
T2 construct: Expressed in HEK293 cells and purified on a Ni column; also called immunogen
T2 sequence (Q9Y275 134-285): as the sequence (Q9Y275 134-285) above
The test can be described thus: SPR (Biacore), antibody captured by anti-human Fc, hBLyS-ECD as analyte.

The target of test [20] is T1, biotinylated hBLyS-ECD. The test is described as follows: BAFF R-coated ELISA, biotinylated hBLyS-ECD bound in presence of antibody 0.8 nM.
Test [21] addresses T2, extracellular domain of human BLyS …. The test can be described thus: SPR (Biacore), antibody captured by anti-human Fc, hBLyS-ECD as analyte. The procedure: Affinity constants were determined using a Biacore X100 instrument (purchased from GE Healthcare). Detailed operations and methods referred to the instrument manuals and detailed methods provided by manufacturers, specifically: determining affinity constant using a CM5 chip (Sensor Chip CM5, purchased from GE Healthcare). […] Then 1 M ethanolamine was injected in chip to block the remaining activation sites. After the antibody to be tested (i.e., the human BLyS antibody prepared by Embodiment 2) was captured by chip, 7 different gradient of immunogen dilutions (i.e., hBLyS-ECD) prepared by Embodiment 1 were injected and the binding and dissociation of antigen with antibody was detected by a Biacore instrument. The dissociation constant and binding constant were then fitted by Biacore X100 Evaluation Software 2.0, while the affinity constant was the ratio of dissociation constant to binding constant.
The binding and dissociation between antibody and antigen was detected by Biacore.
This is another data set of the same source.

The target in test [22] is T1, biotinylated hBLyS-ECD. The test can be described thus: BAFF R-coated ELISA, biotinylated hBLyS-ECD bound in presence of antibody 0.032 nM.
Test [23] addresses T1, biotinylated hBLyS-ECD. The test is described as follows: BAFF R-coated ELISA, biotinylated hBLyS-ECD bound in presence of antibody 20 nM.
Test [24] concerns the target T1, biotinylated hBLyS-ECD. The test is described as follows: ELISA on captured biotinylated hBLyS-ECD; antibody 0.107 nM.

T1 sequence (Q9Y275 134-285): as above

As for hIgG Control (antibody), the OD450 nm is 1.14 OD450 nm in [1]; 1.11 OD450 nm in [2]; 1.08 OD450 nm in [3]; 0.0905 in test [4]; 0.14 OD450 nm in [5]; 0.148 in test [7]. The results for the OD450 nm in test [8], in test [9] and in test [14] were 0.0956, 0.108 and 0.102, respectively. The MFI in test [6] was 27.2 MFI; in test [10], 33.1 MFI; in test [11] it was 26.7 MFI; in test [12] it was 33.6 MFI; in test [13], 22.8 MFI; in test [15], 44.2 MFI.
Regarding mIgG Control (antibody), the OD450 nm in [1] was determined as 1.4 OD450 nm; in test [2] it was 1.45 OD450 nm; in [3] it was 1.47 OD450 nm; in test [4] it was 0.0562; in [7], 0.0708; in [8], 0.0659. In addition, the OD450 nm in test [9] worked out at 0.0695; in test [14], 0.0627. In addition, the MFI in test [6] is 30.3 MFI; in test [10], 31 MFI; in test [11], 20.7 MFI; in test [12], 32.7 MFI; in [13], 19.7 MFI; in [15], 21.6 MFI.

B1: c8E7D9C7F5 (antibody, V domains shown)
VH: QVQLQQSGVELARPGASVKLSCKASGYTFTSYGISWVKQRTGQALEWIGEIYPRSGNTYYNEKFKGKATLTADKSSSTAYMELRSLTSEDSAVYFCARSGPITTLVATDYGMDYWGQGTSVTVSS
VL: DIVLTQSPASLAVSLGQRATISCRASKSVSTSSYSYMHWYQQKPGQPPKLLIKFASNLESGVPARFSGSGSGTDFTLNIHPVEEEDAATYYCQHSREFPYTFGGGTKLEIK
notes: also called chimeric antibody c8E7D9C7F5
Usually Kd stands for a measure of binding affinity in units of concentration. A high value points to a looser complex. The koff is a measure of how fast the partners let go of each other. Low readings indicate a long-lived complex, high ones a short-lived complex. What is called kon is a measure of how fast the partners come together. As for B1, the OD450 nm in test [16] amounted to 3.07 OD450 nm; in test [17] it was 3.24 OD450 nm; in test [18], 0.0918 OD450 nm; in [20], 1.56 OD450 nm; in [22], 1.97 OD450 nm; in test [23], 0.66 OD450 nm. Besides, the OD450 nm in test [24] came to 1.28 OD450 nm. Moreover, the Kd in test [19] amounted to 2.38 nM; in test [21], 2.94 nM. The koff worked out at 0.00109 s⁻¹ in test [19] and 0.000714 s⁻¹ in test [21]. Moreover, the values for the kon in test [19] and in [21] were 456000 M⁻¹ s⁻¹ and 243000 M⁻¹ s⁻¹, respectively.

B2: c97A3C2H4 (antibody, V domains shown)
VH: EVKLVESGGGLVQPGGSLKLSCAASGFTFSTYTMSWVRQTPEKRLEWVAYISYGGGSTSYPDTVKGRFTISRDNAKNTLYLQMSSLKSEDTAIYYCTRHVTVVENSMDYWGQGTSVTVSS
VL: DILLTQSPDILSVSPGERVSFSCRASQSIGTSIHWYQQRTNGSPRLLIKYVSESFSGTPSRFSGSGSGTAFTLTINSVESEDIADYYCQQTHSWPWTFGGGTKLEIK
notes: also called chimeric antibody c97A3C2H4
Regarding B2, the OD450 nm stood at 3.26 OD450 nm in test [16]; 3.32 OD450 nm in test [17]; 0.122 OD450 nm in test [18]; 1.47 OD450 nm in test [20]; 1.84 OD450 nm in test [22]; 0.717 OD450 nm in [23]. Moreover, the OD450 nm in test [24] stood at 1.19 OD450 nm. Besides, the Kd turned out to be 0.446 nM in [19] and 1.49 nM in test [21]. Besides, the figures for the koff in test [19] and in test [21] were 7.34e-05 s⁻¹ and 0.000179 s⁻¹, respectively. The results for the kon in test [19] and in [21] were 165000 M⁻¹ s⁻¹ and 121000 M⁻¹ s⁻¹, respectively.

The values above are taken from patent US20210347873A1 (SHANGHAI PHARMAEXPLORER, published 2021).
